Assay results reported in the supplement of paper PMC10567573.

B1: ANKRD40 (parent)
chain: VRIQNPSLRENDFIEIELDRQELT

Variants of: B1
Experiment: protein stability index of a GFP-peptide fusion (GPS, HEK-293T) (PSI 1-6); higher = more stable
Details: c terminus: a fixed tail appended
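Note: lentivirally expressed fusions sorted by FACS into six bins by GFP to DsRed ratio, PSI derived from sequencing read proportions per bin multiplied by bin number.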

| Variant | protein stability index |
| --- | --- |
| VRIQNASLRENDFIEIELDRQELT [P6A] | 2.75 |
| VRIQNCSLRENDFIEIELDRQELT [P6C] | 2.06 |
| VRIQNDSLRENDFIEIELDRQELT [P6D] | 2.38 |
| VRIQNESLRENDFIEIELDRQELT [P6E] | 2.93 |
| VRIQNFSLRENDFIEIELDRQELT [P6F] | 1.66 |
| VRIQNGSLRENDFIEIELDRQELT [P6G] | 2.28 |
| VRIQNHSLRENDFIEIELDRQELT [P6H] | 2.65 |
| VRIQNISLRENDFIEIELDRQELT [P6I] | 1.52 |
| VRIQNKSLRENDFIEIELDRQELT [P6K] | 2.67 |
| VRIQNLSLRENDFIEIELDRQELT [P6L] | 2.17 |
| VRIQNMSLRENDFIEIELDRQELT [P6M] | 2.18 |
| VRIQNNSLRENDFIEIELDRQELT [P6N] | 2.67 |
| VRIQNQSLRENDFIEIELDRQELT [P6Q] | 2.6 |
| VRIQNRSLRENDFIEIELDRQELT [P6R] | 2.69 |
| VRIQNSSLRENDFIEIELDRQELT [P6S] | 2.16 |
| VRIQNTSLRENDFIEIELDRQELT [P6T] | 2.02 |
| VRIQNVSLRENDFIEIELDRQELT [P6V] | 2.02 |
| VRIQNWSLRENDFIEIELDRQELT [P6W] | 1.77 |
| VRIQNYSLRENDFIEIELDRQELT [P6Y] | 1.73 |
| VRIQNPALRENDFIEIELDRQELT [S7A] | 2.76 |
| VRIQNPCLRENDFIEIELDRQELT [S7C] | 2.33 |
| VRIQNPDLRENDFIEIELDRQELT [S7D] | 2.91 |
| VRIQNPELRENDFIEIELDRQELT [S7E] | 2.8 |
| VRIQNPFLRENDFIEIELDRQELT [S7F] | 1.45 |

| Variant | protein stability index |
| --- | --- |
| VRIQNPGLRENDFIEIELDRQELT [S7G] | 2.26 |
| VRIQNPHLRENDFIEIELDRQELT [S7H] | 2.13 |
| VRIQNPILRENDFIEIELDRQELT [S7I] | 2.56 |
| VRIQNPKLRENDFIEIELDRQELT [S7K] | 2.81 |
| VRIQNPLLRENDFIEIELDRQELT [S7L] | 2.09 |
| VRIQNPMLRENDFIEIELDRQELT [S7M] | 2.01 |
| VRIQNPNLRENDFIEIELDRQELT [S7N] | 2.79 |
| VRIQNPPLRENDFIEIELDRQELT [S7P] | 3.72 |
| VRIQNPQLRENDFIEIELDRQELT [S7Q] | 2.82 |
| VRIQNPRLRENDFIEIELDRQELT [S7R] | 2.39 |
| VRIQNPTLRENDFIEIELDRQELT [S7T] | 3.04 |
| VRIQNPVLRENDFIEIELDRQELT [S7V] | 2.81 |
| VRIQNPWLRENDFIEIELDRQELT [S7W] | 2.2 |
| VRIQNPYLRENDFIEIELDRQELT [S7Y] | 2.16 |
| VRIQNPSARENDFIEIELDRQELT [L8A] | 2.77 |
| VRIQNPSCRENDFIEIELDRQELT [L8C] | 2.36 |
| VRIQNPSDRENDFIEIELDRQELT [L8D] | 2.76 |
| VRIQNPSERENDFIEIELDRQELT [L8E] | 3.34 |
| VRIQNPSFRENDFIEIELDRQELT [L8F] | 2.27 |
| VRIQNPSGRENDFIEIELDRQELT [L8G] | 2.08 |
| VRIQNPSHRENDFIEIELDRQELT [L8H] | 2.93 |
| VRIQNPSIRENDFIEIELDRQELT [L8I] | 3.35 |
| VRIQNPSKRENDFIEIELDRQELT [L8K] | 2.96 |
| VRIQNPSMRENDFIEIELDRQELT [L8M] | 2.42 |

| Variant | protein stability index |
| --- | --- |
| VRIQNPSNRENDFIEIELDRQELT [L8N] | 2.43 |
| VRIQNPSPRENDFIEIELDRQELT [L8P] | 3.13 |
| VRIQNPSQRENDFIEIELDRQELT [L8Q] | 3.11 |
| VRIQNPSRRENDFIEIELDRQELT [L8R] | 2.47 |
| VRIQNPSSRENDFIEIELDRQELT [L8S] | 3.24 |
| VRIQNPSTRENDFIEIELDRQELT [L8T] | 3.42 |
| VRIQNPSVRENDFIEIELDRQELT [L8V] | 2.41 |
| VRIQNPSWRENDFIEIELDRQELT [L8W] | 1.98 |
| VRIQNPSYRENDFIEIELDRQELT [L8Y] | 2.15 |
| VRIQNPSLAENDFIEIELDRQELT [R9A] | 1.92 |
| VRIQNPSLCENDFIEIELDRQELT [R9C] | 2.33 |
| VRIQNPSLDENDFIEIELDRQELT [R9D] | 2.23 |
| VRIQNPSLEENDFIEIELDRQELT [R9E] | 2.74 |
| VRIQNPSLFENDFIEIELDRQELT [R9F] | 1.51 |
| VRIQNPSLGENDFIEIELDRQELT [R9G] | 2.32 |
| VRIQNPSLHENDFIEIELDRQELT [R9H] | 1.81 |
| VRIQNPSLIENDFIEIELDRQELT [R9I] | 1.68 |
| VRIQNPSLKENDFIEIELDRQELT [R9K] | 2.62 |
| VRIQNPSLLENDFIEIELDRQELT [R9L] | 2.48 |
| VRIQNPSLMENDFIEIELDRQELT [R9M] | 1.97 |
| VRIQNPSLNENDFIEIELDRQELT [R9N] | 1.93 |
| VRIQNPSLPENDFIEIELDRQELT [R9P] | 2.63 |
| VRIQNPSLQENDFIEIELDRQELT [R9Q] | 2.16 |
| VRIQNPSLSENDFIEIELDRQELT [R9S] | 2.41 |

| Variant | protein stability index |
| --- | --- |
| VRIQNPSLTENDFIEIELDRQELT [R9T] | 2.54 |
| VRIQNPSLVENDFIEIELDRQELT [R9V] | 2.03 |
| VRIQNPSLWENDFIEIELDRQELT [R9W] | 2.14 |
| VRIQNPSLYENDFIEIELDRQELT [R9Y] | 1.78 |
| VRIQNPSLRANDFIEIELDRQELT [E10A] | 2.27 |
| VRIQNPSLRCNDFIEIELDRQELT [E10C] | 1.73 |
| VRIQNPSLRDNDFIEIELDRQELT [E10D] | 2.31 |
| VRIQNPSLRFNDFIEIELDRQELT [E10F] | 1.92 |
| VRIQNPSLRGNDFIEIELDRQELT [E10G] | 1.85 |
| VRIQNPSLRHNDFIEIELDRQELT [E10H] | 2.38 |
| VRIQNPSLRINDFIEIELDRQELT [E10I] | 2 |
| VRIQNPSLRKNDFIEIELDRQELT [E10K] | 2.08 |
| VRIQNPSLRLNDFIEIELDRQELT [E10L] | 1.53 |
| VRIQNPSLRMNDFIEIELDRQELT [E10M] | 1.74 |
| VRIQNPSLRNNDFIEIELDRQELT [E10N] | 2.15 |
| VRIQNPSLRPNDFIEIELDRQELT [E10P] | 2.5 |
| VRIQNPSLRQNDFIEIELDRQELT [E10Q] | 2.37 |
| VRIQNPSLRRNDFIEIELDRQELT [E10R] | 1.84 |
| VRIQNPSLRSNDFIEIELDRQELT [E10S] | 2.51 |
| VRIQNPSLRTNDFIEIELDRQELT [E10T] | 2.28 |
| VRIQNPSLRVNDFIEIELDRQELT [E10V] | 2.05 |
| VRIQNPSLRWNDFIEIELDRQELT [E10W] | 1.91 |
